{"source": "the DeepSol protein solubility set", "data": [{"assay": "soluble on expression in E. coli; label from the status in PepcDB or PDB records", "values": [{"sequence": "MRVKEQLLTLRAYVPGKNIEEVKREYGLSKIVKLASNENPFGCSARVTEALTSLASQYALYPDGHAFELRTQVAKHLGVKAEQLLFGSGLDEVIQMISRALLHEGTNVVMANPTFSQYHHHAVIEGAEVREVSLKDGIHDLDAMLQQVDDQTKIVWICNPNNPTGTYVEKQKLLSFLESVPKSALVIMDEAYYEYAGAEDYPQTLPLLEKYENLMVLRTFSKAYGLAAFRIGYAVGNTELIGQLEVARLPFNTSTVAQSVALAALEDQAFLQECVKKNEEGLHQYYAFCKEYNVFYYPSQTNFIFLKLGIPGNEAFERLMKKGYIVRSGAAFGIDDGIRITVGLKEENDEIIELLKELVNEQVQKEETYS", "soluble on expression in E. coli": "soluble"}, {"sequence": "MGSDKIHHHHHHMNTHNILIIGQGDIGLPVTNKLAQNGVNVTGLARRKRQNYALSDHAKFMQADALTLSPEQLQDFTHIAIIVTPDEYSTSGYHNSYLAINQHLALLADKLSNLQRVVFISSTGVYGQDNGEWIDEDTVPMLPEREASQVILQAEQALQQVFHDRAIIIRPSGIYGRARLMRVRKAKEPQKQPIAAGAWTNRIMDSDLVNIIAKVLTIKAPKPIYIATDYLPVTSFALTTWLSEQLDEALPVLDDKNSVMTGKRLHSNIPLSWLMYPDWQIGYQDILRHQD", "soluble on expression in E. coli": "not soluble"}, {"sequence": "MAVPPAYADLGKSAKDIFSKGYGFGTVKLDLKTKSQSGVEFTTGGSSNTDTGKAAGNLETKYKVKELGLSLNQKWNTDNVLTTEVTLEDQLAKGLKLGLDTSFVPNTGKKSAKLKTGYKREYMNVGCDLDFDLAGPTVHAAAVLGYEGWLAGYQMAFDTAKSKLAQNNFALGYKAGDFQLHTNVNDGTEFGGSIYQKVNGQLETAVNLAWTAGSNNTRFGIAAKYQLDKDSSVSAKVNNASLVGVGYTQSLRPGVKLTLSALIDAKNFNAGGHKVGMGFELEV", "soluble on expression in E. coli": "not soluble"}, {"sequence": "MAGDPMNEEQRKSTSIDILAERDKKTKDYSKYFEHVYQPPSLKEARKRGKEEVNYNDDFQIDEKYRNMGQGKTFLIKTYGCQMNAHDTEVMAGILGALGYTPTEDINHADVILINTCAIRENAENKVFSEIGNLKHLKKEKPETVIGVCGCMSQEESVVNKILKSYQNVDMIFGTHNIHRLPEILEEAYLSKAMVVEVWSKEGDVIENLPKVREGNIKAWVNIMYGCDKFCTYCIVPFTRGKERSRRPEDIIDEVRDLARQGYKEITLLGQNVNAYGKDIDGLAYGLGDLLEDISKIDIPRVRFTTSHPWDFTDRMIEVIANGGNIVPHVHLPVQSGNNAVLKIMGRKYTRESYLDLVNRIKTHIPNVALTTDIIVGYPNETDEQFEETLTLYDEVEFEHAYTYIYSQRDGTPAAKMNDNVPLDVKKDRLQQLNKKVACYSERAMQQYEGQTVQVLCEGVSKKDDTVLSGYTSKNKLVNFKAPKSMIGKIVNVYIDEAKQFSLNGTFISVNDKTVVTQLEHHHHHH", "soluble on expression in E. coli": "soluble"}, {"sequence": "GFIDSHVHIESSMVSPKEFARAVISRGTTTIIVDPHEIANVCGMDGIKYMMEETKNMPLDVFFMLSSCVPATSFETSGAVLKAEDLKELIDSDRVLGLGEMMNYPGVLSREEEVLNKLKLAGSYNKIVDGHAPSVRGNELNAYNLAGIKTDHECSSIEEMNEKIRNGMYIAIREGSAAKNLDILIKGVNAKNERRIMFCADDRHPDDILKSGHMDNCVRRAIYNGIENTAAIRMASINAAECYKLERVGAIAPSYKADLVVLEDLKDVKVNMVIKSGEVVFKDNKHLKDMGSKSDI", "soluble on expression in E. coli": "not soluble"}, {"sequence": "MSLPAGPSMACQKGTSTWAKAERPRSAKGRSFRMARILLPFSATMGGSRLQWEGMAASHALKPILELLPEELPGEGYRRAQIAHWLYAKGARDFSEMTDLPKALREALAREWRLSEFSLVQAFPSQDGSVKYLFTLLDGKKTEAVYMPYENRKTVCLSTMVGCPAGCTFCATGALGFGRNLTAAEILDQLLTIAYHQGLSPREIRNVVLMGMGEPLLNLRNVLKAVRIMLHKKALALSPRRVTLSTVGIPKGIYRLAEEDLGVRLALSLHAPDDETRRKIIPTAHRYPIAEIMEAVRHYHAKTKRRVTFEYTLLKGVNDHLWQARLLAKLLKGLSAHVNLIPFNPWEGAPVVGTPRAGVLAFAEELKRLGVPTSIRWSRGQDVGAACGQLALKVPRPLTLTPLPGGAGR", "soluble on expression in E. coli": "soluble"}, {"sequence": "MAATATEKLPQLKSAVDGLTEMSENEKSGFINLVSRYLSGEAQHIEWSKIQTPTDEIVVPYDKMANVSEDASETKYLLDKLVVLKLNGGLGTTMGCTGPKSVIEVRDGLTFLDLIVIQIENLNNKYNCKVPLVLMNSFNTHDDTQKIVEKYTKSNVDIHTFNQSKYPRVVADEFVPWPSKGKTDKDGWYPPGHGDVFPSLMNSGKLDAFLSQGKEYVFIANSDNLGAIVDLKILKHLIQNKNEYCMEVTPKTLADVKGGTLISYEGKVQLLEIAQVPDEHVNEFKSIEKFKIFNTNNLWVNLKAIKKLVEADALKMEIIPNPKEVDGVKVLQLETAAGAAIRFFDNAIGVNVPRSRFLPVKATSDLLLVQSDLYTLVDGFVTRNKARTNPTNPAIELGPEFKKVASFLSRFKSIPSIVELDSLKVSGDVWFGSGVVLKGKVTVKANAGTKLEIPDNAVLENKDINGPEDL", "soluble on expression in E. coli": "soluble"}, {"sequence": "YTSLIRRVEHAVDSDGSFETGNEVKLSGVGVIGTDERFERVGETYASYYGYESEELVGKHWSELHPSNEVQHIRTHVIPAVRSGGKWTGQSKGLRADETTFTESKMVTALEDGRMLIAVDEIDDSGLAE", "soluble on expression in E. coli": "not soluble"}, {"sequence": "SLNSVTRLDGANRYEVAVNVSKQGWTSASTVIVANGKAYADVLSATPFAYRNNAPVLLTEASKLPTATKNRISQLKPSKVIVIGGTVSVQNGVVSEIKKLGVSSVERIGGANRYEVAANIANKLPSNSKAVIANGTAYADSLAIGAYAARNGIPILLTSSNSIPTATKNAMKSKGTTSTIVVGGEVSISSSVYKQLASPTRIGGSNRYEVAANVVKKYYSSAKNAIISNGYAYADGLTGSVLAAKQNRPMMFTNASSLPTPTREVIGSKNMTTFTVLGGTVSLQSNVVSQLKN", "soluble on expression in E. coli": "not soluble"}, {"sequence": "MSLKIIPGATGYFNKTLNSNQFDNEDAIKGKVNSIYGKSIDYSTMRHRDIIIAKIDLFIQRITHNLWTAREKNVTLIKQINDLKMCVNEYIGDCTDEELNDREFIASVVDRAIFHFAINSICNPEDNKDATLIERCTFDVETKNGLPSTVQLFYEESKDNEPLANIHLQAIGSGFLTFVNACQEHDDNSLKLFASLLISLSYSSVYSDFAGRVNINEYNDNYLKAQFEELSQRDMKKYLGEMKRLADGGEMNFDGYLDKMSHLVNEGTLAPDILSKMRDAAPKLIDFAKSFDPNSKEKIKIYTGTSKLIYDLFGVKSEKEGHHHHHH", "soluble on expression in E. coli": "soluble"}, {"sequence": "MNPLKAGDIAPKFSLPDQDGEQVNLTDFQGQRVLVYFYPKAMTPGCTVQACGLRDNMDELKKAGVDVLGISTDKPEKLSRFAEKELLNFTLLSDENHQVCEQFGVWGEKSFMGKTYDGIHRISFLIDADGKIEHVFNDFKTSNHHDVVLNWLKENA", "soluble on expression in E. coli": "not soluble"}, {"sequence": "MATLVVNKLGAGVDSGRQGSRGTAVVKVLECGVCEDVFSLQGDKVPRLLLCGHTVCHDCLTRLPLHGRAIRCPFDRQVTDLGDSGVWGLKKNFALLELLERLQNGPIGQYGAAEESIGISGESIIRCDEDEAHLASVYCTVCATHLCSECSQVTHSTKTLAKHRRVPLADKPHEKTMCSQHQVHAIEFVCLEEGCQTSPLMCCVCKEYGKHQGHKHSVLEPEANQIRASILDMAHCIRTFTEEISDYSRKLVGIVQHIEGGEQIVEDGIGMAHTEHVPGTAENARSCIRAYFYDLHETLCRQEEMALSVVDAHVREKLIWLRQQQEDMTILLSEVSAACLHCEKTLQQDDCRVVLAKQEITRLLETLQKQQQQFTEVADHIQLDASIPVTFTKDNRVHIGPKMEIRVVTLGLDGAGKTTILFKLKQDEFMQPIPTIGFNVETVEYKNLKFTIWDVGGKHKLRPLWKHYYLNTQAVVFVVDSSHRDRISEAHSELAKLLTEKELRDALLLIFANKQDVAGALSVEEITELLSLHKLCCGRSWYIQGCDARSGMGLYEGLDWLSRQLVAAGVLDVA", "soluble on expression in E. coli": "soluble"}, {"sequence": "MLVDGKLVCVTGAGGYIASWIVKLLLERGYTVRGTVRNPTDPKNNHLRELQGAKERLTLHSADLLDYEALCATIDGCDGVFHTASPMTDDPETMLEPAVNGAKFVIDAAAKAKVKRVVFTSSIGAVYMNPNRDTQAIVDENCWSDLDFCKNTKNWYCYGKMLAEQSAWETAKAKGVDLVVLNPVLVLGPPLQSAINASLVHILKYLTGSAKTYANLTQVYVDVRDVALGHVLVYEAPSASGRYILAETALHRGEVVEILAKFFPEYPLPTKCSDEKNPRAKPYKFTTQKIKDLGLEFKPIKQSLYESVKSLQEKGHLPLPQDSNQNEVIIES", "soluble on expression in E. coli": "soluble"}, {"sequence": "MSEHQSLPAPEASTEVRVAIVGVGNCASSLVQGVEYYYNADDTSTVPGLMHVRFGPYHVRDVKFVAAFDVDAKKVGFDLSDAIFASENNTIKIADVAPTNVIVQRGPTLDGIGKYYADTIELSDAEPVDVVQALKEAKVDVLVSYLPVGSEEADKFYAQCAIDAGVAFVNALPVFIASDPVWAKKFTDARVPIVGDDIKSQVGATITHRVLAKLFEDRGVQLDRTMQLNVGGNMDFLNMLERERLESKKISKTQAVTSNLKREFKTKDVHIGPSDHVGWLDDRKWAYVRLEGRAFGDVPLNLEYKLEVWDSPNSAGVIIDAVRAAKIAKDRGIGGPVIPASAYLMKSPPEQLPDDIARAQLEEFIIG", "soluble on expression in E. coli": "soluble"}, {"sequence": "GMSESPTAGRASLAPLREFITGLSALLDEQPGEARILREGGALLARLVARDDWLPDAFAQPHPEYYQQMLLHCDSAERFSIVSFVWGPGQRTPIHDHTVWGLIGMLRGAEYSQPFVLDGSGRPVLHGEPTRLEPGHVEAVSPTVGDIHRVHNAYDDRVSISIHVYGANIGGVRRSVYTEAGERKPFISGYSNPYLPNPWDRSKDSAAS", "soluble on expression in E. coli": "soluble"}, {"sequence": "DIVLTQSPSSLAVSLGQRATISCRASQSVSTSSFRYMHWYQQKPGQPPRLLIKYASNLESGVPARFSGSGSGTDFTLNIHPVEEEDTATYYCQHSWEIPYTFGGGTKLEIKRADAAPTVSIFPPSSEQLTSGGASVVCFLNNFYPKDINVKWKIDGSERQNGVLNSWTDQDSKDSTYSMSSTLTLTKDEYERHNSYTCEATHKTSTSPIVKSFNRNEC", "soluble on expression in E. coli": "soluble"}, {"sequence": "MATAHYHGSCQCGSVSFEVDADLDHTVICNCSRCKRLGSTLAFAPREKFTLLSGEDKLSEYLFNKHKIHHFFCSTCGIESFAYADGPDGTPMVAVNANCLDGVDPRALKSQAFDGAAA", "soluble on expression in E. coli": "soluble"}, {"sequence": "NNADYIEMKVPAQPEYVGIIRLTLSGVASRMGYTYDEIEDLKIAVSEACTNAVQHAYKEDKNGEVSIRFGVFEDRLEVIVADEGDSFDFDQKQQDLGPYTPSHTVDQLSEGGLGLYLMETLMDEVRVQNHSGVTVAMTKYLNGERVDHDTTIKNYETN", "soluble on expression in E. coli": "not soluble"}, {"sequence": "MGSDKIHHHHHHMKATSSFKGQTTGLYIVPTPIGNLEDMTYRAVRILQESDLVAAEDTRQTMKLFNHFKIETKLVSYHEHNKQVSGARLLADLHAGKQIALVSDAGMPGISDPGSDLIREAIAEDIPVIVLPGANAALTALVASGLATERFLYYGFLPRKKKERREALETVRYEKGSLIFYEAPHRLKEMLGALRDVLGDRQLTLARELTKRYEEYIRGSVTEALEWAEEEVRGEFVVIVEGSTEERPAEEEQKADPLQQIERYIEQGEKPNAALKRVAKERGLDRQELYLRYHES", "soluble on expression in E. coli": "not soluble"}, {"sequence": "MTNFEYYRDFDDFQRRETINFFLSKFPLASQKQLQDFLEQARQAYVQLRQTNPAHLDWNQTLLYLAQKFLPEKQSEKDRLKKILVLQEQLKVRYEGEIKRQSQQNSELLIQLGQRDEEIIQMQQLFKEKERQLEVYQKQLNEAKEYNHKLEEHYNKTLEEALKEYEQQCTDAIHRRDEEIQAIFTSKLNEKNSEITQLQTYLQSAVDENEALQKQHKLVLFKNQKYEKMVSDLQVDLARIQEINNSLTSEKRDFQRANNDLVKQYNKLKNRLEQKLGEITNAQVNGQTHTVSLADTSQQFHRPQEAVIPQTQVISYTLDDMDDDMEVEETPPTTNKDLPRGATQPKRNSIKRVSKLID", "soluble on expression in E. coli": "soluble"}]}]}
